In paper PMC2586147:

Target: K401-BIO-H6 R210K (Drosophila) (UniProt P17210)
Experiment: AUC

| Substance | stoichiometry N |
| --- | --- |
| K401 (from UniProt P17210 1-401) (domain or fragment) | 2 |
| K401-BIO-H6 R210K (from UniProt P17210 1-401) (domain or fragment) | 2 |
